Numbering of substitutions follows the chain as printed.
B1: anti-HlgC1 MAb (antibody, V domains shown)
VH: QVQLLQSGAELVKPGASVQLSCKASGFTFTKHDINWVRQRPEQGLEWIGWIFPGDGNTKYNEKFKGKATLTTDKSSSTAYMQLNGLTSEDSAVYFCAKEIFYWGQGTSVTVSS
VL: DIVMTQSPSSLTVTAGEKVTMSCKSSQSLLNSENQRNYLTWYQQKPGQPPKLLISWASTRESGVPDRFTGSGSGTDFTLTISSVQAEDLAVYYCQNDFSYPLTFGAGTKLELR
notes: also called anti-HIgC1 MAb; source: murine B-cell hybridoma (BALB/c mice immunized with recombinant HlgC)
B2: anti-HlgC3 MAb (antibody, V domains shown)
VH: B1 VH with H32Y, E42D, E62D, A68V, T69I, N84S, G85R, K98R, S113A
VL: B1 VL with L30F, G47R, G63E, F98Y
notes: also called anti-HIgC3 MAb; source: murine B-cell hybridoma (BALB/c mice immunized with recombinant HlgC)
B3: anti-HlgC4 MAb (antibody, V domains shown)
VH: B1 VH with H32Y, E42D, E62D, A68V, T69I, N84T, G85R, K98R
VL: B1 VL with F98Y
notes: also called anti-HIgC4 MAb; source: murine B-cell hybridoma (BALB/c mice immunized with recombinant HlgC)
B4: anti-HlgC2 MAb (antibody, V domains shown)
VH: QVQLKESGPGLVAPSQSLSITCTVSGFSLTNFAVHWVRQPRGKGLEWLGSIWADGRTIYSALMSRLSISKDNSKSQVFLNMNSLQTDDTAMYYCATPFYFGYDGGYAMDHWGQGTSVTVSS
VL: DVLMTQTPLSLPVSLGDQASISCRSSQSIVHGSGNTYLEWYLQKPGQSPKLLIYKVSNRLSGVPDRISGSGSGTDFTLKINRVEAEDLGVYYCFQGSHVPYTFGGGTKLEMK
notes: also called anti-HIgC2 MAb; source: murine B-cell hybridoma (BALB/c mice immunized with recombinant HlgC)

The binders below were run against T1, HlgA (Staphylococcus aureus, strain not told, UniProt P0A074) (assay: ELISA). Conditions: both partners purified.
T1 construct: source: purified recombinant
B1: no binding (tested: MAb at 2 μg/ml). B2: no binding (tested: MAb at 2 μg/ml). B3: no binding (tested: MAb at 2 μg/ml). B4: no binding (tested: MAb at 2 μg/ml).

The binders below were run against T2, LukD (Staphylococcus aureus, strain , UniProt O54082) (assay: ELISA). Conditions: both partners purified.
T2 construct: source: purified recombinant
B1: no binding (tested: MAb at 2 μg/ml). B2: no binding (tested: MAb at 2 μg/ml). B3: no binding (tested: MAb at 2 μg/ml). B4: no binding (tested: MAb at 2 μg/ml).

What follows are binders tested against T3, γ-hemolysin subunit HlgC, recombinant holoprotein (Staphylococcus aureus, strain not told, UniProt Q07227) (assay: ELISA). Conditions: both partners purified.
T3 construct: source: purified recombinant
B1: binds. B2: binds. B3: binds. B4: binds.

Each binder was assayed against T4, LukE (Staphylococcus aureus, strain , UniProt O54081) (assay: ELISA). Conditions: both partners purified.
T4 construct: source: purified recombinant
B1: no binding (tested: MAb at 2 μg/ml). B2: no binding (tested: MAb at 2 μg/ml). B3: no binding (tested: MAb at 2 μg/ml). B4: no binding (tested: MAb at 2 μg/ml).

Each binder was assayed against T5, LukS, S subunit of the Panton-Valentine leukocidin (LukSF), recombinant holoprotein (Staphylococcus aureus, strain not …, UniProt O80066) (assay: ELISA). Conditions: both partners purified.
T5 construct: source: purified recombinant
B1: binds. B2: binds. B3: binds. B4: binds.

The binders below were run against T6, HlgB (Staphylococcus aureus, strain not told, UniProt P0A077) (assay: ELISA). Conditions: both partners purified.
T6 construct: source: purified recombinant
B1: no binding (tested: MAb at 2 μg/ml). B2: no binding (tested: MAb at 2 μg/ml). B3: no binding (tested: MAb at 2 μg/ml). B4: no binding (tested: MAb at 2 μg/ml).
